# The nanobody polyreactivity screen of Harvey et al. (2022)
# Assay: yeast display, Sf9 membrane polyspecificity reagent, FACS + sequencing; frameworks hold sequencing errors
# Summary of the method: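 Synthetic nanobody libraries on Saccharomyces cerevisiae BJ5465 were galactose-induced for 36–48 hours, stained 1 hour at 4 °C with 10% biotinylated, detergent-solubilized Sf9 membrane reagent and enriched on streptavidin microbeads. FACS then separated cells into low and high (top ~1%) gates by anti-HA (expression) and streptavidin (reagent binding) fluorescence. Genes were colony-PCR amplified, MiSeq 2 × 250 sequenced and CDR-length filtered. A clone's polyreactivity label is that of its gate of origin.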
row,Sequence,polyreactivity (PSR sort gate)
1,QVQLVESGGGLVQAGGSLRLSCAASGRIIGFNAMGWYRQAPGKERELVASIRTTGGSTRYADSVKGRFTISRDNAKNTVYLQMNSLKPEDTAVYDCAARWGKTLWQYNYWGQGTQVTVSS,high polyreactivity
2,QVQLVESGGGLVQAGGSLRLSCAASGRIIGHNAMGWYRQAPGKERELVAAISSRGGSTFYADSVKGRFTISRDNAKNTVYLQKNSLKPEDTAVYYCNALGVGHSGFTKFSRYYYWGQGTQVTVSS,high polyreactivity
3,QVQLVESGGGLVQAGGSLRLSCAASGRIIGKNVMGWYRQAPGKERELVAAISKSGGSTYYADSVKGRFTISRDNAKNTVYLQMNSLKPEDTAVYYCAAKYYYHWHRQGYDYWGQGTQVTVSS,high polyreactivity
4,QVQLVESGGGLVQAGGSLRLSCAASGRIIGKYDMGWYRQAPGTERELVAAIRYNGGRTYYADSVKGRFTISRDNAKNTVYLQMNRLKPEDNAVYYCATRTYRVDPEFGYWGQGTEVTVSS,high polyreactivity
5,QVQLVESGGGLVQAGGSLRLSCAASGRIIGLYAMGWYRQAPGKEMELVAAISSAGSTYYADSVKGRFTISRDNAKNTVYLQMNSLKTEDTAVYYCDKSRYRGYDYWGQGTQVTVSS,low polyreactivity
6,QVQLVESGGGLVQAGGSLRLSCAASGRIIGNYAMGWYRQAPGKERELVAAISNGGSTNYADSVKGRFTISRDNAKNTVYLQMNSLKPEDTAVYYCNADQWAVIWGYMVLDFYYWGQGTQVTVSS,low polyreactivity
7,QVQLVESGGGLVQAGGSLRLSCAASGRIIGRYAMGWYRQAPGKEREFVAAISGSGGSTYYADSVKGRFTISRDNAKNTVYLQMNSLKPEDTAVYYCNALSVPDYDYWGQGTQVTVSS,high polyreactivity
8,QVQLVESGGGLVQAGGSLRLSCAASGRIIGYYAMGWYRQAPGKERELVAGIDWSGGNTYYADSVKGRFTISRDNAKNTVYLQMNSLKPEDTAVYYCNTEGGRDTAWYDYWGQGTQVTVSS,low polyreactivity
9,QVQLVESGGGLVQAGGSLRLSCAASGRIIIYKAMGWYRQAPGKERQLVAAINRSGVSTHYADSVKGRFTISRDNAKNTVYLQMNSLKPEDTAVYYCARTVYGARSYDYWGQGTQVTVSS,low polyreactivity
10,QVQLVESGGGLVQAGGSLRLSCAASGRIIKFYAMGWYRQAPGKERELVARISRSGGRTYYADSVKGRFTISRDNAKNTVYLQMNSLKPEDTAVYYCAADTQSVATYDYWGQGTQVTVSS,low polyreactivity
11,QVQLVESGGGLVQAGGSLRLSCAASGRIINSNAMGWYRQAPGKERELVAAISTTGGRTYYADSVKGRFTISRDNAKNTVYLQMNSLKPEDTAVYYCNRLYRYLVWPAGEYDYWGQGTQVTVSS,high polyreactivity
12,QVQLVESGGGLVQAGGSLRLSCAASGRIIPYYAMGWYRQAPGKERELVASTNYADSVKGRFTISRDNAKNTVYLQMNSLKPEDTAVYYCAADGYRYSVYLIRNPMDYWGQGTQVTVSS,low polyreactivity
13,QVQLVESGGGLVQAGGSLRLSCAASGRIIRAYDMGWYRQAPGKERELVAVIRYRGGTTYYADSVKGRFTISRDNAMNTVYLQMYSLKPEDTAVYYCATEDNYHWWYTGVSYGEHDYLGQGTQVTVSS,low polyreactivity
14,QVQLVESGGGLVQAGGSLRLSCAASGRIIRSNVMGWYRQAPGKERDLVAGISRSGGSTYYADSVKGRFTISRDNAKNTVYLKMNSLKPEDTAVYYCNAGWWYLGSPFDRDYWGQGTQVTVSS,high polyreactivity
15,QVQLVESGGGLVQAGGSLRLSCAASGRIISHYAMGWYRQAPGKDRELVAAISRSGVSTYYADSVKGRFTISRDNAKNTVYLQMNSLKPEDTAVYYCNRRYDRGPYDYWGQGTQVTVSS,low polyreactivity
16,QVQLVESGGGLVQAGGSLRLSCAASGRIITGYAMGWYRQAPGKERELVAAISRGGSTNYADSVKGRFTISRDNAKNTVYLQMNSLKPEDTAVYYCAAGVHWDRGDYWGQGTQVTVSS,low polyreactivity
17,QVQLVESGGGLVQAGGSLRLSCAASGRIITYNAMGWYRQAPGKERELVAAISTTGGRTYYADSVKGRFTISRDNAKNTVYLQMNSLKPEDTAVYYCNAVLKRPLAYHVTYDYWGQGTQVTVSS,high polyreactivity
18,QVQLVESGGGLVQAGGSLRLSCAASGRIIYGYAMGWYRQAHGKERELVASITATYYADSVKGRFTISLDNSKNTVYLQMNSLIPEDTAVYYCNAYLSPKHPLSRPDPTFEGGYRGQGTQVTVSS,low polyreactivity
19,QVQLVESGGGLVQAGGSLRLSCAASGRIIYGYAMGWYRQAPGKERELVAAISASGGRTYYADSVKGRFTISRDHAKNTVYLQMNSLKPEDTAVYYCAADDVGPPDFYYWGQGTQVTVSS,high polyreactivity
20,QVQLVESGGGLVQAGGSLRLSCAASGRIIYGYARGWYRQAPGKERELVAAISASGGRTYYADSVKGRFTISRDNAKNTVYLQMNSLKPEDTAVYYCARARFYWLTQWSYDYWGQGTQVTVSS,high polyreactivity
21,QVQLVESGGGLVQAGGSLRLSCAASGRILAPYVMGWYRQAPGKERELVAAISRSTGRTYYADSVKGRFTISRDNAKNTVYLQMNSLKPEDTAVYYCNRDVRVSLMGYWGQGTQVTVSS,high polyreactivity
22,QVQLVESGGGLVQAGGSLRLSCAASGRILASYAMGWYRQAPGKERELVAAISRSGGSTYYADSVKGRFTISRDNAKNTVYLQMNSLKPEDTAVYYCAAKYPQKTPVNSYGNSFYYWGQGTQVTVSS,high polyreactivity
23,QVQLVESGGGLVQAGGSLRLSCAASGRILAYNVMGWYRQAPGKEREFVASIRRTGVRTYYADSVKGRFTISRDNAKNTVYLQMNSLKPEDTAVYYCNAANFNFWDYYYWGQGTQVTVSS,low polyreactivity
24,QVQLVESGGGLVQAGGSLRLSCAASGRILAYYAMGWYRQAPGKERELVAAITSGGRTYYADSVKGRFTISRDNAKNTVYLQMNSLKPEDTAVYYCNAVYGYWYGSWGQGTQVTVSS,high polyreactivity
25,QVQLVESGGGLVQAGGSLRLSCAASGRILAYYAMGWYRQAPGKERELVAAITSGGRTYYADSVKGRFTISRDNAKNTVYLQMNSLKPEDTPVYYCNAVYGYWYGSWGQGTQVTVSS,high polyreactivity
26,QVQLVESGGGLVQAGGSLRLSCAASGRILDYNAMGWYRQAPGKERELVADISGSGDSTYYADSVKGRFTISRDNAKNTVYLQMNSLKPEDTAVYYCAASGAWDWWLGPYDDYYWGQGTQVTVSS,low polyreactivity
27,QVQLVESGGGLVQAGGSLRLSCAASGRILDYYAMGWYRQAPGKERELVAAISRSGSDTYYADSVKGRFTISRDNAKNTVYLQMNSLKPEDTAVYYCAARWSYRSLARYNYWGQGTQVTVSS,low polyreactivity
28,QVQLVESGGGLVQAGGSLRLSCAASGRILEGYSMGWYRQAPGKERELVAAISFSTTTTYYADSVKGRFTISRDNAKNTVYVQMNILKPEDTAVYYCAADSQQSDYDYWGQGTQVTVSS,high polyreactivity
29,QVQLVESGGGLVQAGGSLRLSCAASGRILEVYAMGWYRQAPGKERELVAAIRWSDGNTYYADSVKGRFTISRDNAKNTVYLQMNSLKPEDTAVYYCAARTPGGYDWGQGTQVTVSS,high polyreactivity
30,QVQLVESGGGLVQAGGSLRLSCAASGRILGAYAMGWYRQAPGKERELVASISSGGRTYYADSVKGRFTISRDNAKNTVYLQMNSLKPEDTAVYYCNAKVRRRKYDYWGQGTQVTVSS,high polyreactivity
